Results: patent US20030162712A1

Target: naturally occurring Tek as expressed on human endothelial cells (human) (UniProt Q02763)
Test: flow cytometry on HMVEC-d, mAb 5 µg/ml, competitor human Ang2 10 µg/ml; negative control antibody

UniProt Q02763, sequence (Q02763 23-1124): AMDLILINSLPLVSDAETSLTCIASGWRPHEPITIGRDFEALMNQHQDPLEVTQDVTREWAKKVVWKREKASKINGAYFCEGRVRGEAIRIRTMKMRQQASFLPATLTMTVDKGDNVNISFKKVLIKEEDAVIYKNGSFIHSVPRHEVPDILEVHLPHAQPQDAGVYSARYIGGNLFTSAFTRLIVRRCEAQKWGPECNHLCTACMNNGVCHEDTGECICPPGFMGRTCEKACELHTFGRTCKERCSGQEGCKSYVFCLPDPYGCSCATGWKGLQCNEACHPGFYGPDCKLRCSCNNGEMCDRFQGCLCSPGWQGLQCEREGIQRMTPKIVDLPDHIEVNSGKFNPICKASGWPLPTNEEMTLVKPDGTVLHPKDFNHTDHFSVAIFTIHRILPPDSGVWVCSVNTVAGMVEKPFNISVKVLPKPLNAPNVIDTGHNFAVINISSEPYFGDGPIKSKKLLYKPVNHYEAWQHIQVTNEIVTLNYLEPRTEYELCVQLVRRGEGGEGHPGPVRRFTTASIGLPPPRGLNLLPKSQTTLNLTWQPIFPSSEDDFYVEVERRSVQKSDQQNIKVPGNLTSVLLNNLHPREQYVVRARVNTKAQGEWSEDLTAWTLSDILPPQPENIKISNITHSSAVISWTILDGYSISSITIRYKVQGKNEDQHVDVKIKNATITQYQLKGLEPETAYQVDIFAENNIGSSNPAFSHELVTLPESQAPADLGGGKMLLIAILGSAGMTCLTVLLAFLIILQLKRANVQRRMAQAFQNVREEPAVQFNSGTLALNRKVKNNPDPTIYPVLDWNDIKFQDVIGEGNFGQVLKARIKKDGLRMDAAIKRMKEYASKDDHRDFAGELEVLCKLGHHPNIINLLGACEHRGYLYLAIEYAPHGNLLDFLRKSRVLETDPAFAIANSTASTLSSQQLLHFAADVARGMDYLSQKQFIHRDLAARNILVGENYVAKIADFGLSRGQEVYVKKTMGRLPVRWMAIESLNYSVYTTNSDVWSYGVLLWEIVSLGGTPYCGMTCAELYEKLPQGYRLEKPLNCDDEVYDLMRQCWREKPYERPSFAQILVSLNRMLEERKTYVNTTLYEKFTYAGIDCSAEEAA

Substance: IgG1 negative control mAb (MOPC21) (antibody)
- Percent Inhibition of Antibody Binding by Ang2: 0%
